Target: T1, recombinant 77-kDa GPBP expressed from pc-n4′ (human, UniProt Q9Y5P4 1-624)
T1 construct: untagged, transient expression in HEK 293 cells; also called 77-kDa GPBP isoform
T1 sequence: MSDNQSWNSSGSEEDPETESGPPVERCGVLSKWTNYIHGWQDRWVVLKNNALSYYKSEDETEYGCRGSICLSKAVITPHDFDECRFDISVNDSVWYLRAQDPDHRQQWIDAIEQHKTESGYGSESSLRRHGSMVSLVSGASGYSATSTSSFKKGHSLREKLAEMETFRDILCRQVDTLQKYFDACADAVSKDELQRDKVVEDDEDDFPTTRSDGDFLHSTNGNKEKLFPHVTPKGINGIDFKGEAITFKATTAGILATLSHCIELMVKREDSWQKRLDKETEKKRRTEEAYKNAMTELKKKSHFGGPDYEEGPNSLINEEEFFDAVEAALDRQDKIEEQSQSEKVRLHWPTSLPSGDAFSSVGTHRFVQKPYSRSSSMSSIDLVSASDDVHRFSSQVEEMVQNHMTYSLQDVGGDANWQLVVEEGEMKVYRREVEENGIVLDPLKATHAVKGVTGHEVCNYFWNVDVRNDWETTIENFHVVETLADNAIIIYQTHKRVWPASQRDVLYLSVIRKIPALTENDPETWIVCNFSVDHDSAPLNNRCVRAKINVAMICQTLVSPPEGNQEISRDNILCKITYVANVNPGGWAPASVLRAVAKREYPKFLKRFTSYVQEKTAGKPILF
Assay: ex vivo cross-linking and FLAG immunoprecipitation
Description: Cells were grown up to 70-90% of confluence in either 150-mm plates (native GPBP) or six-well plates (recombinant GPBP). Cross-linking was performed 48 h after transfection or when cells reached the indicated confluence. Briefly, cells were brought to RT by rinsing with PBS and incubated for 10 min with culture medium containing 1% formaldehyde. The cross-link reaction was quenched with 125 mM Gly-HCl in PBS (pH 7.4) for 10 min at RT. Cells were brought to 4° C. by rinsing with ice-chilled PBS and procedure continued at 4° C. Cells were lysed with 1 or 5 ml (six-well or 150-mm plate) of extraction buffer [16 mM Tris-HCl pH 7.5, 160 mM NaCl, 2 mM ethylenediaminetetraacetic acid (EDTA), 1. […] Eluted samples were boiled with electrophoresis sample buffer (2×) for 15 min to reverse cross-linking and further analyzed by SDS-PAGE and either Coomassie blue staining or Western blot.
This was further assessed by ex vivo cross-linking and FLAG-immunoprecipitation of cells expressing or not expressing BM40-FLAG-α3(IV)NC1, a recombinant exportable form of the human α3(IV)NC1 (16), followed by SDS-PAGE analysis of immunoprecipitates (FIG. 4A). […] To further determine that GPBP indeed interacted with FLAG-α3(IV) in the ER, cells expressing or not expressing BM40-FLAG-α3(IV)NC1 were transfected with pc-n4′ and similarly analyzed (FIG. 4B).

B1: FLAG-α3(IV)NC1, recombinant exportable human α3(IV)NC1 domain (BM40-FLAG-α3(IV)NC1) (other, not shown: small tags and cut ends)
chain: GLKGKRGDSGSPATWTTRGFVFTRHSQTTAIPSCPEGTVPLYSGFSFLFVQGNQRAHGQDLGTLGSCLQRFTTMPFLFCNVNDVCNFASRNDYSYWLSTPALMPMNMAPITGRALEPYISRCTVCEGPAIAIAVHSQTTDIPPCPHGWISLWKGFSFIMFTSAGSEGTGQALASPGSCLEEFRASPFLECHGRGTCNYYSNSYSFWLASLNPERMFRKPIPSTVKAGELEKIISRCQVCMKKRH
notes: expressed in HEK 293-FLAG-α3(IV) cells; also called type IV collagen
B1: binds.
